# Legend:
# complement Factor D (fD) [1] = target: T1, complement Factor D (fD) (Homo sapiens, UniProt P00746 SEQ:1-228); test: SPR; conditions: tags: amine-coupled to dextran chip for SPR; free in esterase assay; hairpin
# Experimental: (§1) The binding affinity of aptamers for fD was determined by surface plasmon resonance (SPR) on a Reichert4 SPR System, where either aptamer or fD was immobilized as ligand on a solid surface and the interactant analyte was flowed in solution over the immobilized ligand (Table 20).
# complement Factor D (fD) [2] = target: T1, complement Factor D (fD); test: TR-FRET, 25 C; conditions: tags: His-tagged recombinant, bead-immobilized via His capture beads (flow) or anti-His Eu (TR-FRET); hairpin
# Experimental: (§2) The binding affinity of aptamers for fD was determined in solution using a homogenous time-resolved fluorescence resonance energy transfer (TR-FRET) assay (Table 21). In brief, 2.5 nM recombinant human Factor D with a hexahistidine tag (SEQ ID NO:324) (His), 2.5 nM anti-His Europium, and varied concentrations of Dylight® 650-labeled aptamer was added to half-well black 96-well plates in TR-FRET buffer (50 mM MOPS, pH 7.4, 125 mM NaCl, 5 mM KCl, 0.1 mg/mL BSA, 50 μM CHAPS, 1 mM CaCl₂ and 1 mM MgCl₂). After 1 hour incubation at 25° C., binding activity was assessed using a BioTek® Cytation™ 5 plate reader. Affinity binding constants were calculated as the concentration at which 50% of aptamer is bound using a single site binding model, with values ranging from 0.66 nM to 2.5 nM (Table 21).
# [3] = target: T2, complement Factor D (fD) in C1q-depleted human serum (Homo sapiens, UniProt P00746 SEQ:1-228); test: inhibition; hemolysis, sd 0.8; conditions: protein: extract; tags: endogenous fD, about 9.6 nM in 10% serum; hairpin
# Experimental: (§3) In V-bottom 96-well plates the following reagents were added to a final volume of 250 μL: appropriate volume of 1× Veronal buffer with 0.1% gelatin, 100 μL aptamer, 30 μL of C1q-depleted human serum and 20 μl RBCs. This mixture was incubated for 25 minutes at room temperature, then the reaction was stopped by the addition of 5 μL of 500 mM EDTA. The plate was centrifuged for 5 minutes at 500×g at room temperature, then 100 μL of supernatant was removed and the extent of RBC lysis was determined by measuring absorbance at 405 nm.
# (§4) The potency of the PEG-aptamers P01, P04, P06, P07 and P08 compared to their non-pegylated counterparts was determined in the alternative complement-dependent hemolysis assay as described in Example 2.
# [4] = target: T2, complement Factor D (fD) in …; test: inhibition; hemolysis, sd 0.9; conditions: protein: extract; tags: endogenous fD, about 9.6 nM in 10% serum; hairpin
# Experimental: as §3, §4
# complement Factor D (fD) [5] = target: T1, complement Factor D (fD); test: TR-FRET, 50 mM MOPS pH 7.4, 125 mM NaCl, 1 mM Ca and Mg, 25 C; conditions: tags: His-tagged recombinant, bead-immobilized via His capture beads (flow) or anti-His Eu (TR-FRET); hairpin
# Experimental: as §2
# complement Factor D (fD) [6] = target: T1, complement Factor D (fD); test: SPR; fD immobilized; conditions: tags: amine-coupled to dextran chip for SPR; free in esterase assay; hairpin
# Experimental: as §1
# [7] = target: T2, complement Factor D (fD) in …; test: inhibition; hemolysis, sd 1.4; conditions: protein: extract; tags: endogenous fD, about 9.6 nM in 10% serum; hairpin
# Experimental: as §3, §4
# complement Factor D (fD) [8] = target: T1, complement Factor D (fD); test: flow; bead-based direct binding; conditions: tags: His-tagged recombinant, bead-immobilized via His capture beads (flow) or anti-His Eu (TR-FRET); hairpin
# [9] = target: T2, complement Factor D (fD) in …; test: inhibition; hemolysis, sd 4.4; conditions: protein: extract; tags: endogenous fD, about 9.6 nM in 10% serum; hairpin
# Experimental: as §3, §4
# complement Factor D (fD) [10] = target: T1, complement Factor D (fD); test: flow; bead-based direct binding, 37 C; conditions: tags: His-tagged recombinant, bead-immobilized via His capture beads (flow) or anti-His Eu (TR-FRET); hairpin
# [11] = target: T2, complement Factor D (fD) in …; test: inhibition; hemolysis, sd 0.5; conditions: protein: extract; tags: endogenous fD, about 9.6 nM in 10% serum; hairpin
# Experimental: as §3, §4
# [12] = target: T2, complement Factor D (fD) in …; test: inhibition; hemolysis, sd 0.4; conditions: protein: extract; tags: endogenous fD, about 9.6 nM in 10% serum; hairpin
# Experimental: as §3, §4
# [13] = target: T2, complement Factor D (fD) in …; test: inhibition; hemolysis, sd 1.5; conditions: protein: extract; tags: endogenous fD, about 9.6 nM in 10% serum; hairpin
# Experimental: as §3, §4
# [14] = target: T2, complement Factor D (fD) in …; test: inhibition; hemolysis, sd 0.1; conditions: protein: extract; tags: endogenous fD, about 9.6 nM in 10% serum; hairpin
# Experimental: as §3, §4
# [15] = target: T2, complement Factor D (fD) in …; test: inhibition; hemolysis; Table 17 lists about 10 nM; conditions: protein: extract; tags: endogenous fD, about 9.6 nM in 10% serum; hairpin
# Experimental: as §3
# [16] = target: T2, complement Factor D (fD) in …; test: inhibition; hemolysis, sd 0.6; conditions: protein: extract; tags: endogenous fD, about 9.6 nM in 10% serum; hairpin
# Experimental: as §3, §4
# T2 sequence (P00746 26-253): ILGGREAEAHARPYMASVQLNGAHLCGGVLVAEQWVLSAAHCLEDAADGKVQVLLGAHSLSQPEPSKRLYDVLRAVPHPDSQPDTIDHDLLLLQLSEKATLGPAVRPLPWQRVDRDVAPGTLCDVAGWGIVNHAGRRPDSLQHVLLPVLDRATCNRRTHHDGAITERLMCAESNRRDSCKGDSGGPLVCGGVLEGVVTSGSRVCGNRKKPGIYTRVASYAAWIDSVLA
# T1 sequence (P00746 26-253): as above
binder,measurement,setting,value
"CCGACUUGCCAGUAUUGGCGAUGGCUGGAAGUUUGUCGG (ssRNA, 2'-F G except 2'-OMe G in stem 1; 2'-OMe A,C,U; 5' C6NH2; 3' idT) [Aptamer 76]",Kd,complement Factor D (fD) [1],1.6 nM
same,Kd,complement Factor D (fD) [2],0.8 nM
same,IC50,[3],4.2 nM
"CCGACUUGCCAGUAUUGGCGAUGGCUGGAAGUUUGUCGG (ssRNA, as Aptamer 76; 5' 40 kDa branched PEG via C6NH2; 3' idT) [P06 (PEGylated Aptamer 76)]",IC50,[4],4.1 nM
"CCGCCUUGCCAGUAUUGGCUUAGGCUGGAAGUUUGGCGG (ssRNA, 2'-F G except 2'-OMe G at 3,35,36,38,39; 2'-OMe A,C,U; 5' C6NH2; 3' idT) [Aptamer 74]",Kd,complement Factor D (fD) [5],2.5 nM
same,Kd,complement Factor D (fD) [6],3.7 nM
same,IC50,[7],7 nM
same,Kd,complement Factor D (fD) [8],2.7 nM
"CCGCCUUGCCAGUAUUGGCUUAGGCUGGAAGUUUGGCGG (ssRNA, 2'-F G; 2'-OMe A,C,U; 5' C6NH2; 3' idT) [Aptamer 15]",IC50,[9],9.4 nM
same,Kd,complement Factor D (fD) [10],8.37 nM
"CCGACUUGCCAGUAUUGGCUUAGGCUGGAAGUUUGUCGG (ssRNA, as Aptamer 106; 5' 40 kDa branched PEG via C6NH2; 3' idT) [P08 (PEGylated Aptamer 106)]",IC50,[11],4.1 nM
"CCGACUUGCCAGUAUUGGCUUAGGCUGGAAGUUUGUCGG (ssRNA, 2'-F G except 2'-OMe G in stem 1; 2'-OMe A,C,U; 5' C6NH2; 3' idT) [Aptamer 106]",Kd,complement Factor D (fD) [1],1.7 nM
same,IC50,[12],5.2 nM
same,Kd,complement Factor D (fD) [2],0.66 nM
"CCGCCUUGCCAGUAUUGGCUUAGGCUGGAAGUUUGGCGG (ssRNA, 2'-F G; 2'-OMe A,C,U; 5' 40 kDa branched PEG via C6NH2; 3' idT) [P01 (PEGylated Aptamer 15)]",IC50,[13],6.1 nM
"CGACUUGCCAGUAUUGGCGAUGGCUGGAAGUUUGUCG (ssRNA, 2'-F G except 2'-OMe G in stem 1; 2'-OMe A,C,U; 5' C6NH2; 3' idT) [Aptamer 102]",IC50,[14],6.3 nM
same,Kd,complement Factor D (fD) [1],2.5 nM
same,Kd,complement Factor D (fD) [2],1.6 nM
"CGACUUGCCAGUAUUGGCGAUGGCUGGAAGUUUGUCG (ssRNA, 2'-F G; 2'-OMe A,C,U; 5' C6NH2; 3' idT) [Aptamer 53]",IC50,[15],< 10 nM
"CGACUUGCCAGUAUUGGCGAUGGCUGGAAGUUUGUCG (ssRNA, as Aptamer 102; 5' 40 kDa branched PEG via C6NH2; 3' idT) [P07 (PEGylated Aptamer 102)]",IC50,[16],4.4 nM

# From patent publication US20190032056, “STEM-LOOP COMPOSITIONS AND METHODS FOR INHIBITING FACTOR D” (Vitrisa Therapeutics, Inc., published 2019)
